Measurements taken from patent publication US11643670B2, “Methods of enhancing chromosomal homologous recombination” (Massachusetts Institute of Technology, priority 2018, dated 2023).

System: maternal Chd2 locus
Assay: Donor-free interchromosomal homologous recombination (ICHR) in IVF-derived Chd2^R1684H/+ embryos
Type: cell-based, mouse
Protocol: tracrRNA, crRNAs, and ssODNs were synthesized by Integrated DNA Technologies (TABLE 1). All injection mixtures were prepared in a final volume of 50 μL according to the following methodology: Using RNase-free water, reagents, and consumables, crRNA (final concentration 0.61 μM), tracrRNA (final concentration 0.61 μM), and ultrapure Tris-HCl, pH 7.39 (final concentration 10 mM, ThermoFisher) were mixed and incubated at 95° C. for 5 minutes. The mixtures were cooled to room temperature for 10 minutes on the benchtop, and then, EnGen Cas9-NLS S. pyogenes (New England Biolabs) was added to a final concentration of 30 ng/μL. The mixtures were incubated at 37° C. for 15 minutes before adding any remaining components: ssODN (final concentration 3 ng/μL or 30 ng/μL), RAD51 (Creative Biomart, final concentration 10 ng/μL). Injection mixtures were stored on ice and briefly heated to 37° C. prior to injection. For experiments utilizing RS-1, embryos were cultured in KSOM-AA (EMD Millipore MR-121-D) with […] RS-1 (Sigma) dissolved in DMSO or DMSO (Sigma, 1:1000) for 24 hours, washed, and cultured in EmbryoMax FHM HEPES Buffered Medium (Sigma) until collection for genotyping.
For experiments using wildtype recombinant proteins, the following proteins were used: RAD51 (Creative Biomart RAD51-134H), USP1/WDR48 (Creative Biomart USP1&WDR48-1067H), BCCIP (Origene TP303061), XRCC1 (TP304952), XRCC4 (Origene TP312684), DMC1 (Origene TP318311). For experiments using mutant RAD51, custom RAD51 preparations were produced by Creative Biomart according to their standard protocol for producing the wildtype RAD51 used in all other experiments. Mutant DNA sequences used for cloning are described in TABLE 2. All RAD51 mutants were modeled in human RAD51 transcript variant 4 (NCBI accession NM_001164269), as this is the transcript variant of the wildtype RAD51-134H protein used in all other experiments.
In vitro fertilization was performed using FERTIUP® Mouse Preincubation Medium and CARD MEDIA (Kyudo Company) according to the manufacturer's protocol. Non-virgin Chd2^R1684H/R1684H males that were >8 weeks old were used as sperm donors. Following IVF, embryos were cultured for 8 hours and then injected using the PNI protocol described below.
For all experiments except those described in FIG. 6, the male pronucleus was injected. Injections performed for the CPI portion of FIG. 6 were targeted to the cytoplasm. All microinjections were performed using a Narishige Micromanipulator, Nikon Eclipse TE2000-S microscope, and Eppendorf 5242 microinjector. Individual zygotes were injected with 1-2 pL of injection mixture using an “automatic” injection mode set according to needle size and adjusted for clear increase in pronuclear volume. Following injections, cells were cultured in KSOM-AA until collection for genotyping. For experiments giving rise to F0 animals, embryos were surgically implanted into pseudopregnant CD-1 females (Charles River Laboratories, Strain Code 022) 24-hours post-injection and allowed to develop normally until natural birth.
Embryos were collected at morula-to-blastocyst stage in 4 μL nuclease-free water. After collection, 4 μL of 2× embryo digestion buffer was added to each sample (final concentrations: 125 μg/mL proteinase K, 100 mM Tris-HCl pH 8.0, 100 mM KCl, 0.02% gelatin, 0.45% Tween-20, 60 μg/mL yeast tRNA) and embryos were lysed for 1 hour at 56° C. Proteinase K was inactivated via incubation at 95° C. for 10 minutes and DNA was stored at −20° C. until use.
Chd2^R1684H genotyping was performed via a two-step, nested approach. Except for experiments described in FIGS. 3A-3G, all 8 μL of embryo DNA were used as input for the initial, long round of PCR. Genotyping of mouse pups and adult animals was performed using 2 μL of purified tail DNA. For all embryo genotyping, reactions mixtures were set up in a UV-sterilized laminar flow hood using sterile reagents and filter tips to avoid contamination. […]

[1] = compared to embryos injected with wildtype RAD51

B1: G151D: recombinant RAD51 gain-of-function mutant with increased strand exchange activity, SEQ ID NO: 8 (protein)
chain: MAMQMQLEANADTSVEEESFGPQPISRLEQCGINANDVKKLEEAGFHTVEAVAYAPKKELINIKGISEAKADKILTESRSVARLECNSVILVYCTLRLSGSSDSPASASRVVGTTGGIETGSITEMFGEFRTGKTQICHTLAVTCQLPIDRDGGEGKAMYIDTEGTFRPERLLAVAERYGLSGSDVLDNVAYARAFNTDHQTQLLYQASAMMVESRYALLIVDSATALYRTDYSGRGELSARQMHLARFLRMLLRLADEFGVAVVITNQVVAQVDGAAMFAADPKKPIGGNIIAHASTTRLYLRKGRGETRICKIYDSPCLPEAEAMFAINADGVGDAKD
efficiency of ICHR stimulation: ~100% | indel-to-ICHR ratio (level): near zero | indel events (27 injected zygotes): not a single indel event was identified | apparent editing efficiency (blastocysts from Cas9/crRNA/tracrRNA-injected embryos): 22% | ICHR rate compared with baseline (Cas9-only embryos) (co-injected with Cas9/crRNA/tracrRNA, no donor): ICHR was observed in all edited cells | indel-to-ICHR ratio (compared to control embryos): drastic decrease | overall indel rate (compared to control embryos): drastic decrease | indel-to-ICHR ratio [1]: significant decreases | overall indel rate [1]: significant decreases
